Publication PMC10809841, “Transferrin Is Up-Regulated by Microbes and Acts as a Negative Regulator of Immunity to Induce Intestinal Immunotolerance” (Research, 2024)

B1: peptide TC6 (peptide)
peptide: TTPEPC
notes: designed peptide TC6; also called interference peptide TC6
B2: cluster of differentiation 14 (CD14) (receptor, UniProt P08571 20-345, looked up)
chain: TTPEPCELDDEDFRCVCNFSEPQPDWSEAFQCVSAVEVEIHAGGLNLEPFLKRVDADADPRQYADTVKALRVRRLTVGAAQVPAQLLVGALRVLAYSRLKELTLEDLKITGTMPPLPLEATGLALSSLRLRNVSWATGRSWLAELQQWLKPGLKVLSIAQAHSPAFSCEQVRAFPALTSLDLSDNPGLGERGLMAALCPHKFPAIQNLALRNTGMETPTGVCAALAAAGVQPHSLDLSHNSLRATVNPSAPRCMWSSALNSLNLSFAGLEQVPKGLPAKLRVLDLSCNRLNRAPQPDELPEVDNLTLDGNPFLVPGTALPHEGSMN
notes: CD14, TLR coreceptor; isolated protein used in SPR and native gel; Probably a soluble recombinant CD14; also called WT-CD14; wild-type CD14

Assays:
transferrin [1] = target: T1, transferrin (UniProt P02787 20-698); test: not stated; direct binding of TC6 (Fig. S9C to E); method not given
T1 construct: transferrin (serotransferrin), the iron transporter of serum; probably the mature plasma protein; also called Tf; WT-Tf

transferrin [2] = target: T1, transferrin; test: SPR; BIAcore 2000; transferrin coupled at a CM5 sensor chip, CD14 flowed over; details in the Supplementary Materials (not shown); conditions: both partners purified

T1 sequence (P02787 20-698): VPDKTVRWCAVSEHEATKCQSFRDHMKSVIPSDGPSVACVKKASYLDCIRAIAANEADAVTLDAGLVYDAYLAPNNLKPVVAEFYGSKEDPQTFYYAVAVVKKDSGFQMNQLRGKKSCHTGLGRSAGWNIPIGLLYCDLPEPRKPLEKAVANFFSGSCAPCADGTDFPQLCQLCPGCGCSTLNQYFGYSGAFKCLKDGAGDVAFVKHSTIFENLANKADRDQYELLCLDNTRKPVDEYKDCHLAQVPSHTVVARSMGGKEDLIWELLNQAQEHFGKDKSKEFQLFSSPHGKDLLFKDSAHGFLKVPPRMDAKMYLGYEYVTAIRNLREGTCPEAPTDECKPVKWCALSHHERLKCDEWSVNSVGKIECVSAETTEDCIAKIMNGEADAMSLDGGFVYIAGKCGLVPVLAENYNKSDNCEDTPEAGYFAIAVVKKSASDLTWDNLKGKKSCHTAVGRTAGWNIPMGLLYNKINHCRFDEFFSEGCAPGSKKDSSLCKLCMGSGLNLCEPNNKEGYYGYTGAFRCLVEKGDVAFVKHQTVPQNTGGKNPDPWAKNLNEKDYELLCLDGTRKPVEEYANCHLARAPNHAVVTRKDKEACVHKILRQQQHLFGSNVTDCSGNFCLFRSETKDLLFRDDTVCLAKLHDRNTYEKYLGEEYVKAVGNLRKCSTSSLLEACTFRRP

Binder	Kd (transferrin [1])	Kd (transferrin [2])	koff (transferrin [2])	kon (transferrin [2])
B1	13 nM			
B2		14 nM	0.00033 s⁻¹	24000 M⁻¹ s⁻¹
